Experimental data taken from US20240218057A1 (ROCKEFELLER UNIVERSITY, published 2024).

Each binder was assayed against SARS-COV-2 RBD (SARS-COV-2, UniProt P0DTC2 319-539) (assay: ELISA, RBD coated).

Binder | EC50 [ng/mL]
C045 (antibody, V domains shown) VH: EVQLVESGGGLVQPGGSLRLSCAASGFTFSTYSMNWVRQAPGKGLEWVSYISSSSSTIHYADSVKGRFTISRDNAKNSLYLQMNSLRDEDTAVYYCAREAHDGALTDYGDYLNWFDPWGQGTLVTVSS VL: SYELTQPPSVSVAPGKTARITCGGTNIGSKNVHWYQQKPGQAPVLVIYYDNDRPSGIPERFSGSNSGNTATLTISRVEAGDEADYYCQVWDTTSDHFYWVFGGGTKLTVL | 7
C069 (antibody, V domains shown) VH: QVQLVQSGAEVKKPGSSVNVSCKASGGTFSTYAIHWVRQAPGQGLEWMGGIIPLFHTANYAQKFQGRVTITADESTSTAYMELSSLRSEDTAMYYCAINTQWDLVPRWGRGTLVTVSS VL: EIVLTQSPGTLSLAPGERATLSCRASQSVNSNYLAWYQQKPGQAPRLLIYGASSRATGIPDRFSGSGSGTDFTLTISRLEPEDFAVYYCQQYGFSLYSFGQGTKLEIK | 381
C080 (antibody, V domains shown) VH: EVQLVQSGAEVKKPGESLNISCKASGYSFTIYWIAWVRQLPGKGLEWMGIIYPGDSDTRYSPSFQGQVTISADKSISTAYLQWRSLKASDSAVYYCARGVAVDWYFDLWGRGTLVTVSS VL: QSVLTQPPSVSGAPGQRVTISCAGSSSNIGAGFDVYWYQQLPGTAPKLLIYGNNNRPSGVPDRFSGSKSGTSASLAITGLQAEDEADYYCQSSGSVLSDLYVFGTGTKVTVL | 1.97
C058 (antibody, V domains shown) VH: QVQLVQSGAEVKKPGASVKVSCKASGYIFTDYSMHWVRQAPGQGLEWIGWVNPNSGGTNYAQKFQGWVTMARDTSITTVYMELSRLKSDDTAVYFCARGPLFHRLVYDFWSGYHDGFDMWGQGTMVTVSS VL: QSALTQPASVSGSPGQSITISCTGTSSDVGGYKFVSWYQQHPGKAPKLMIYEVSNRPSGVSNRFSGSKSGNTASLTISGLQAEDEADYYCNSYTSSSTWVFGGGTKLTVL | 2.28
C059 (antibody) chain 1: QVQLVQSGAEVKKPGASIKVSCKASGYTFTDYSMHWVRQAPGQGLEWMGWINPNSGGTKYAQKFQGWVTMTRDMSITTVYMELTRLRSDATAVFYCARGPLFHKLVYDSWTGYHDGFDIWGQGTMVTVSS chain 2: QSALTQPASVSGSPGQSITISCTGTSSDVGGYNYVSWYQHYPGKAPKLMIYEVTHRPSGVSNRFSGSKSGNTASLTISGLQAEDEADYYCSSSTNSSTWVFGGGTKMTVL | 1.88
C057 (antibody, V domains shown) VH: QVQLVQSGAEVKRPGASVKLSCKASGYIFTDYSIHWVRQAPGQGLEWMGWVNPNSGGGNSAQKFMDWVTMARDTSITTVYMELSRLRSDDTAVYYCARGPLFHKLVYDSWSGYHDGFDIWGQGTMVTVSS VL: QSALTQPASVSGSPGQSITISCTGTSSDVGAYKFVSWYQQHPGKAPQLIIYEVSNRPSGVSNRFSGSKSGNTASLTISGLQAEDEADYYCSSYTNASTWVFGGGTELTVL | 2.31
C050 (antibody, V domains shown) VH: EVQLVESGGGLFQPGGSLRLSCAASGFSVRNNYVSWVRQAPGKGLEWVSVIYSGGTTYYADSVKGRFTISRDISENTLYLQMNSLRAEDTAVYYCAREGDVEGLHDFWSGYSRDRYYFDYWGQGTLVTVSS VL: QSALTQPASVSGSPGQSIIISCTGTSGDIGGYNYVSWYQQHPGKAPKLMIYDVSFRPSGVSNRFSGSKSDNTASLTISGLQAEDEADYYCSSFTGNNTRVFGTGTKVTVL | 193
C053 (antibody, V domains shown) VH: EVQLVESGGGLIQPGGSLRLSCAASGFIVSNNYMSWVRQAPGKGLDWVSVIYSGGTTYYADSVKGRFTISRDNSKNTLYLQMNSLRAEDTAVYYCAREGDVEGYHDSWSGYSRDRYYFDYWGQGTLVTVSS VL: QSALTQPASVSGSPGQSITISCTGSSSDVGGYNFVSWYQQHPGRAPKLMIYDVSNRPSGVSNRFSGSKSGNTASLTISGLQVEDEADYYCSSYTNNNTRVFGTGTKVTVL | 1.53
C052 (antibody, V domains shown) VH: EVQLVESGGGLIRPGGSLRLSCAASGFSVSNNYMSWVRQAPGKGLEWVSVIYSGGTTYYADSVKGRFNISRDNSKNTVYLQMNSLRAEDTAVYYCAREGDVEGYYDFWSGYSRDRYYFDYWGQGALVTVSS VL: QSALTQPASVSGSPGQSITISCTGTSSDVGGYNYVSWYQQHPGKAPKLMIYDVSNRPSGVSNRFSGSKSGNTASLTISGLQAEDEADYYCNSYTSNNTRVFGTGTKVTVL | 1.23
C054 (antibody, V domains shown) VH: EVQLVESGGGLIQPGGSLRLSCAASGFTVSNNYMSWVRQAPGKGLEWVSVIYSGGSTYDADSVKGRFTISRDNSKNTLYLQMNSLSAEDTAVYYCAREGDVEGYYDFWSGYSRDRYYFDYWGQGTLVTVSS VL: QSALTQPASVSGSPGQSITISCTGTSSDVGGYNYVSWYQQHPGKAPKLMIYDVSNRPSGVSNRFSGSKSGNTASLTISGLQAEDEADYYCSSYTSSSARVFGTGTKVTVL | 1.58
C062 (antibody, V domains shown) VH: EVQLVESGGGLVKPGGSLRLTCAASGFTFSTYSMNWVRQAPGKGLEWVSSISSSSSYIYYADSVKGRFTISRDNAKNSLYLQMNSLRAEDTAVYYCARERGYYGGKTPPFLGGQGTLVTVSS VL: NFMLTQPHSVSESPGKTVTISCTGSSGSIASNYVQWYQQRPGSAPTTVIYEDNQRPSGVPDRFSGSIDSSSNSASLTISGLKTEDEADYYCQSYDSSNYWVFGGGTKLTVL | 4.69
C521 (antibody, V domains shown) VH: EVQLVESGGGLVRPGGSLTLSCVASGFTVGSNFMSWVRQAPGKGLEWVSLIYNSGGTHYADSVKGRFTISRDRSKNTLYLQMNSLRAEDTAIYYCANHGYYYYMDVWGKGTTVTVS VL: QSALTQPASVSGSPGQSITISCTGTGSDIGAYNYVSWHQHHPGKAPKLIIYDVSNRPSGVSNRFSGSKSGNTASLTISGLQAEDEADYYCTSYTNTTTPWVFGGGTKVTVL | 6.9
C088 (antibody, V domains shown) VH: QVQLVQSGAEAKKPGASVKVSCKTSGYTFTNYFMHWVRQAPGQGPEWMGIIDSSDGGASYAQKFQGRVTMTRDTSTSTVYMELRSLKFEDTAVYYCARASTSTTSWSDALSLGSWGQGTLVTVSS VL: QSVLTQPPSVSGAPGQRVTISCTGSSSNIGGGSVVHWYQQLPGTAPKLLIYANSNRPSGVPDRFSGSKSGTSASLAIAGLQAEDEADYYCQSWDNGLSASGVVFGGGTKLTVL | 2.44
C518 (antibody, V domains shown) VH: EVQLVESGGGLIQPGGSLRLSCAASGITVSSNYMSWVRQAPGKGLEWVSVMYAGGSSFYADSVKGRFTISRDNSKNTLYLQMNSLRVEDTAVYYCARDLIALGVDVWGQGTTVTVSS VL: DIQLTQSPSFLSASVGDRVTITCRASQGISSYLAWYQQKPGKAPKLLIYAASTLQSGVPSRFSGSGSGTEFTLTISSLQPEDFATYYCQLLNSYPMCSFGQGTKLEIK | 1.13
C094 (antibody, V domains shown) VH: QVQLQESGPGLVKPSETLSLTCNVSGVSISTDYWSWIRQPPGKGLEWIGYIYYSGNTKDYNPSLKSRVTISVDTSKNQFSLMLSSVTAADTAVYYCARHYDILTSLSWFDPWGQGTLVTVSS VL: QSVLTQPPSVSAAPGQKVTISCSITNSNLGNIYVSWYQQLPGTAPKLLIYGNNKRPSGIPDRFSGSKSGTSATLGITGLQTGDEAHYYCGTWDSSLSANWVFGGGTKLTVL | 1.67
C051 (antibody, V domains shown) VH: EVQLVESGGGLIQAGGSLRLSCAASGFGVRNNYMSWVRQAPGKGLEWVSVIYSGGTTYYADSVKGRFTISRDNSKNTVFLQMNSLRAEDTAVYYCAREGDVEGFSDLWSGYSRDRYYFDYWGQGTLVTVSS VL: QSALTQPASVSGSPGQSITFSCTGTSSDVGGYNYVSWYQQYPGKAPKLLIYDVTNRPSGVSDRFSGSKSGNTASLTISGLQAEDEADYYCSSFTSSNTRVFGTGTKVTVL | 1.65

These binders were tested against T1, SARS-COV-2 RBD (SARS-COV-2, UniProt P0DTC2 319-539) (assay: ELISA, RBD coated on plate).
T1 construct: also called WT RBD

Binder | EC50 [ng/mL]
C945 (antibody, V domains shown) VH: QVQLVQSGAEVKKPGASVRISCKASGYTFTNYYMHWVRQAPGQGLEWMGIINPSGGSTTYAPKFQARVTMTRDTSTSTVYMELSSLRSDDTAVYYCARDYVLVPARSGMDVWGQGTTVTVS VL: EIVLTQSPATLSLSPGERATLSCRASQSVSSYLAWYQQKPGQAPRLLIYDASNRATGIPARFSGSGSGTDFTLTISSLEPEDFAIYYCQQRSNWPYTFGQGTKLEIK | 3.13
C946 (antibody, V domains shown) VH: QVQLVQSGAEVKKPGASVKVSCKASGYTFTNYYIHWVRQAPGQGLEWMGIINPDGDSTSYVQKFQGRVTMTRDTSTSTVYMELSSLRSEDTAVYYCARDLVFVPATSAMDVWGKGTTVTVSS VL: EIVLTQSPATLSLSPGERATLSCRASQSVSSYLAWYQQKPGQAPRLLIYDASNRATGIPARFSGSGSGTDFTLTISSLEPEDFAVYYCQQRSNWLFTFGPGTKVDIK | 3.82
C947 (antibody, V domains shown) VH: QVQLQESGPGLVRPSGTLSLTCAVTGGSISSSDCWSWVRQPPGKGLEWIGEICHGRTSNYNPSLKSPVSISVDKSKNQFSLILSSVTAADKAVYYCARSSRFLPPLPDAFDLWGQGTMVTVSS VL: QSVLTQPPSVSGAPGQRVTISCTGSSSNIGAGYDVHWYKQLPGTAPKLLIYGNTNRPSGVPGRFSGSKSGTSASLAITGLQAEDEADYFCQSYDTRLSVVFGGGTKLT | 2.08
C949 (antibody, V domains shown) VH: QVQLQESGPGLVKPLQTLSLTCTVSGGSISNGDYYWSWIRQSPGKGLEWIGNIFYSGATYFNPSLKSRVTLSVDTSKNQFSLKLSSVTAADTAVYYCARVVRVLPAASVDCWGQGTLVTVSS VL: QSALTQPRSVSGSPGQSVPISCTGTSSDVGGYDYVSWYQQHPGKAPKLIIYDVSERPSGVPDRFSGSKSGNTASLTISGLQAEDEATYYCCSYAGTSVMFGGGTKLTVL | 2.33
C948 (antibody, V domains shown) VH: EVQLVESGGGLVQPGGSLRLSCAASGFTFSRYDMHWVRQATGKGLEWVSIIGTAGDTYYPGSVKGRFTISRDNAKNSLFLQMNSLRAGDTAVYYCARANYDSSGYHNWFDPWGQGTLVTVSS VL: DIQMTQSPSSLSASIGDRVTITCRASQNINSYLNWYQQKPGKAPKLLIYAASSLQSGVPSRFSGSGSGTDFTLTINSLQPEDFATYYCQQSYSMPSWTFGQGTKVEI | 3.26
